Assay results taken from patent publication US20110003880A1, “Compositions and methods for inhibiting optic nerve damage” (priority 2006, published 2011).

Experiments:
PAD 2 = assay: Modulation of intracellular calcium and PAD 2 expression in pressure treated astrocytes; type: cell-based, rat; settings: astrocytes subjected to 40 mm Hg for 5 hours; 50-200 nM
Method: FIGS. 9A-9B. Modulation of intracellular calcium concentration and PAD 2 expression. The astrocytes were subjected to 40 mm Hg for 5 hours and restored to normal pressure except controls. Pressure treated cells were subjected to (FIG. 9A) indicated concentrations of BAPTA-AM for 24 hours or (FIG. 9B) indicated concentrations of Thapsigargin. Total protein were extracted and transferred on PVDF membrane after SDS-PAGE separation and probed with antibodies to PAD 2 and GPDH, secondary antibodies coupled with IR-700 dye allowed scanning and detection.
Astrocytes from Sprague Dawley rats (Harlan, Indianapolis, Ind.) brain cortex were used for these studies. Mixed glial cell suspensions were prepared from the P3 rat cortex regions following published procedures (Fuss, B., et al., Dev Biol., 218:259-74 (2000)) from which enriched GFAP positive cells were obtained using immunopanning (Yang, P., et al., Brain Res Brain Res Protoc. 12:67-76 (2003)). The astrocytes were exposed to a pressure of 40 mm of Hg for five hours (Yang, J. L., et al., Exp Eye Res. 56:567-74 (1993); Salvador-Silva, M., et al., Glia. 45:364-77 (2004)). Briefly, the cells plated in six well plates (Costar, Cambridge, Mass., USA) at a density of 3-10×10^3 cells/well and grown to semiconfluence in 2 days were incubated with serum free medium overnight. […]

PAD2 [1] = assay: Anti-PAD2 Western analysis of optic nerve from glaucomatous donors; type: in vivo, human; settings: 85M POAG donor, trabeculectomy plus verapamil; compared with other POAG eyes (86M and 76F)
Method: FIGS. 5A-5D. Elevated level of PAD2 and citrulline in response to pressure. […] Protein extracted from the optic nerve of cadaver Caucasian donor eyes, age and gender are as indicated. All glaucomatous donors suffered elevated IOP and were subjected to surgical intervention except the 76F donor. The 85M donor also received verapamil, a calcium modulator. FIG. 5B, Representative Western analyses with anti-PAD2 of rat brain astrocytes subjected to 40 mm Hg pressure for 5 h then returned to atmospheric pressure for up to 4 days as indicated. FIG. 5C, Representative Western analysis with anti-citrulline of protein extracts (5 μg) from astrocytes subjected to elevated pressure as in FIG. 5B. […]
For these analyses previously described mouse monoclonal antibody (mAb) against PAD2 (Koike, H., et al., Biosci Biotechnol Biochem. 58:2286-7(1994); Koike, H., et al., Biosci Biotechnol Biochem. 59:552-4(1995)) was used. […] For quantitative Western analyses, anti-mouse and anti-rabbit secondary antibody linked to 700 nm or 800 nm IR-dyes were used on an Odyssey Infrared Imaging system according to the manufacturer (Li-Cor Biosciences, Lincoln, Neb.). […]
Other donor eyes that had undergone either surgical or combined surgical and pharmacological intervention to relieve elevated IOP were also analyzed for PAD2. […]

PAD2 [2] = type: cell-based, rat
Method: Astrocytes from Sprague Dawley rats (Harlan, Indianapolis, Ind.) brain cortex were used for these studies. Mixed glial cell suspensions were prepared from the P3 rat cortex regions following published procedures (Fuss, B., et al., Dev Biol., 218:259-74 (2000)) from which enriched GFAP positive cells were obtained using immunopanning (Yang, P., et al., Brain Res Brain Res Protoc. 12:67-76 (2003)). The astrocytes were exposed to a pressure of 40 mm of Hg for five hours (Yang, J. L., et al., Exp Eye Res. 56:567-74 (1993); Salvador-Silva, M., et al., Glia. 45:364-77 (2004)). Briefly, the cells plated in six well plates (Costar, Cambridge, Mass., USA) at a density of 3-10×10^3 cells/well and grown to semiconfluence in 2 days were incubated with serum free medium overnight. A closed pressurized chamber (5% carbon dioxide) equipped with a manometer was used to subject the cells to elevated pressure. Cells were placed in the chamber and the pressure was elevated to 40 mm Hg. The chamber was subsequently placed in a tissue culture incubator at 37° C. Control cells from identical passage of cell lines were simultaneously incubated in a tissue culture incubator at atmospheric pressure at 37° C. The cells were incubated for 5 h or 1-4 days after pressure treatment. After incubation, cells were trypsinized and subjected to culture or Western analyses. For culture, the cells were plated on a cover slip and allowed 16 hours recovery period and subjected to immunohistochemistry using mouse monoclonal PAD2 and rabbit polyclonal GFAP antibodies. The cells were permeabilized with 200 μl of 0.2% Triton X-100 in phosphate buffer saline pH 7.5 for 1 hour after fixation with 4% paraformaldehyde for 1 hour. Western analyses were performed using antibodies to PAD2 and citrulline as described above.
For treatment of rat cortex astrocytes, shRNA against PAD2 (OpenBiosystems, Cat. #RHS 1764-9214220) was procured from OpenBiosystems in pShag Magic version 2.0 vector (OpenBiosystems). This shRNA contains the sequence (5′[…]′3) (SEQ ID NO: 7) from the coding region of PAD2 (see FIG. 14). For a negative control, we used a non-silencing shRNA sequence cloned into pShag Magic 2.0 (OpenBiosystems, cat. #RHS1703) from OpenBiosystems verified to contain no homology to known mammalian genes. About 30% confluent cells (3000 primary astrocytes) (Lee, J. H., et al., Glia., 50:66-79 (2005)) were transfected using SuperFect transfection reagent, purified vector (5 μg) DNA (Qiagen, Valencia, Calif.) and the manufacturer's recommended protocols. The post transfected astrocytes were selected on geneticin (10 μg/μl). The primary astrocytes were subjected to pressure (40 mm of Hg) and transfected with shRNA on plates immediately after they were brought to normal atmospheric pressure.

[3] = astrocytes subjected to 40 mm Hg, transfected with shRNA immediately after return to atmospheric pressure, vs non-specific shRNA

## CC(=O)OCOC(=O)CN(CC(=O)OCOC(C)=O)c1ccccc1OCCOc1ccccc1N(CC(=O)OCOC(C)=O)CC(=O)OCOC(C)=O [BAPTA-AM]
PAD 2
  expression of PAD 2 protein (Western): reduces expression of PAD 2 protein

## C/C=C(/C)C(=O)O[C@H]1C(C)=C2[C@H]([C@@H]1OC(=O)CCCCCCC)[C@@](C)(OC(C)=O)C[C@H](OC(=O)CCC)[C@@]1(O)[C@H]2OC(=O)[C@@]1(C)O [Thapsigargin]
PAD 2
  expression of PAD 2 protein (Western): seems not to show a great increase in PAD 2 expression

## COc1ccc(CCN(C)CCCC(C#N)(c2ccc(OC)c(OC)c2)C(C)C)cc1OC (centres unmarked) [verapamil]
PAD2 [1]
  optic nerve PAD2 level (Western, relative to GPDH): appeared lower

B1: PAD2 specific shRNA: shRNA against PAD2 (OpenBiosystems, Cat. #RHS 1764-9214220) in pShag Magic version 2.0 vector, SEQ ID NO: 7 (nucleic acid)
chain: TGCTGTTGACAGTGAGCGACAGCCTTGACTCATTTGGAAATAGTGAAGCCACAGATGTATTTCCAAATGAGTCAAGGCTGGTGCCTACTGCCTCGGA
PAD2 [2]
  Differences in cell morphology due to reduction in mRNA: not observed
PAD2 [2]; [3]
  PAD2 expression (anti-PAD2 Western analysis): reduced PAD2 expression
  citrullination (anti-citrulline Western analysis): reduced citrullination
PAD2 [2]; isolated astrocytes, 5 hours or 4 days at atmospheric pressure after 40 mm Hg, compared to untreated group
  PAD 2 by immunohistochemical analysis: reduced
PAD2 [2]; pressure treated astrocytes transfected with shRNA, within the sensitivity of detection
  PAD2 mRNA (Northern analysis of total RNA): completely removed
